In doi:10.1101/2021.07.07.451531 (bioRxiv, 2021):

B1: hCD11bNb1 (VHH)
VHH: QVQLVETGGGLVQAGGSLRLSCAASGNINSFNAMGWFRQAPGKQRELVAAITFGGRTNYADSVKGRFTISRDNTKGSVYLQMNSLKPEDTAVYYCAASENNLLTGVWHYWGRGTQVTVSS

Key:
biotinylated iC3b = assay: SPR
[1] = target: αM subunit of the αMβ2 headpiece (human, UniProt P11215); assay: crystal structure
[2] = target: recombinant human αI domain of αMβ2 (human, UniProt P11215); assay: SEC
Sequence of recombinant human αI domain of αMβ2 (P11215 148-336): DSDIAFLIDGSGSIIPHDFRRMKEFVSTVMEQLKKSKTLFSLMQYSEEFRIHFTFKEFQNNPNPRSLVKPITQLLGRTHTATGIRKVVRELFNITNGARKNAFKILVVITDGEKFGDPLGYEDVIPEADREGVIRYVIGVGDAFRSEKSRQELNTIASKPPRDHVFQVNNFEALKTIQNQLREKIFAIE

Sequence of αM subunit of the αMβ2 headpiece (P11215 17-770): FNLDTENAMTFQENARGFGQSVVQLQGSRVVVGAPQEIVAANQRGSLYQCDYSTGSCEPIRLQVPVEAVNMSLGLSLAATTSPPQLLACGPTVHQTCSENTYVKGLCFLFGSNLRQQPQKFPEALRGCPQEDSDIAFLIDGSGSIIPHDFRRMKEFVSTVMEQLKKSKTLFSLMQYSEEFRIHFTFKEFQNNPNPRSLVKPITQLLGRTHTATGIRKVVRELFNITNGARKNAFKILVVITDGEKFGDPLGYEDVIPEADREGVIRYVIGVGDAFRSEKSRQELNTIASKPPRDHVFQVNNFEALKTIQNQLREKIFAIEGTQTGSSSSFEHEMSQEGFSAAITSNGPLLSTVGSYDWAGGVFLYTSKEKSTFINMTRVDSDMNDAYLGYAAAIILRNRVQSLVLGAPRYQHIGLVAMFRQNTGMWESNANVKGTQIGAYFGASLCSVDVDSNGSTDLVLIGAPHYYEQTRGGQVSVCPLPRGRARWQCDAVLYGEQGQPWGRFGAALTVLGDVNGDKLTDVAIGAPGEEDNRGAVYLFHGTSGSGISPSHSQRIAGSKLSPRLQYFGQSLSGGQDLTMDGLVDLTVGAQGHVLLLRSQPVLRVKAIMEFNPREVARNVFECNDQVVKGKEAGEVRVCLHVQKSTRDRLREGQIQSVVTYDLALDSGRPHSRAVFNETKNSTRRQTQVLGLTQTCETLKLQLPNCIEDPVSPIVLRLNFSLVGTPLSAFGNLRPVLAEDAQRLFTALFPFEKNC

Molecule | Kd (biotinylated iC3b) [nM] | binding result [1] | binding result [2]
αMβ2 headpiece (from UniProt P05107 23-482) (complex) | 30 |  | 
B1 |  | binds | binds
